From patent US20220010008A1
Several values for one entry are separate records, joined by “and”; a condition that tells them apart may be missing. Equal entries are not always repeated.

Columns and labels:
[1] = biological target: recombinant human IL-5 protein (human) (UniProt P05113); assay: cell-based or functional assay
[2] = biological target: recombinant human IL-5 protein (human) (UniProt P05113); assay: ELISA, biotin-human IL-5 on streptavidin plate, Ab 0.0002 nM
[3] = biological target: recombinant human IL-5 protein (human) (UniProt P05113); assay: ELISA, biotin-human IL-5 on streptavidin plate, Ab 0.0009 nM
[4] = biological target: recombinant human IL-5 protein (human) (UniProt P05113); assay: ELISA, biotin-human IL-5 on streptavidin plate, Ab 0.0043 nM
[5] = biological target: recombinant human IL-5 protein (human) (UniProt P05113); assay: ELISA, biotin-human IL-5 on streptavidin plate, Ab 0.0213 nM
[6] = biological target: recombinant human IL-5 protein (human) (UniProt P05113); assay: ELISA, biotin-human IL-5 on streptavidin plate, Ab 0.1067 nM
[7] = biological target: recombinant human IL-5 protein (human) (UniProt P05113); assay: ELISA, biotin-human IL-5 on streptavidin plate, Ab 0.5333 nM
[8] = biological target: recombinant human IL-5 protein (human) (UniProt P05113); assay: ELISA, biotin-human IL-5 on streptavidin plate, Ab 2.6667 nM
[9] = biological target: recombinant human IL-5 protein (human) (UniProt P05113); assay: ELISA, biotin-human IL-5 on streptavidin plate, Ab 13.3333 nM
[10] = biological target: recombinant human IL-5 protein (human) (UniProt P05113); assay: FACS blocking: biotin-IL-5 bound to CHOK1 IL-5Ra/CSF2RB cells, Ab 0.0004 nM
[11] = biological target: recombinant human IL-5 protein (human) (UniProt P05113); assay: FACS blocking: biotin-IL-5 bound to CHOK1 IL-5Ra/CSF2RB cells, Ab 0.0021 nM
[12] = biological target: recombinant human IL-5 protein (human) (UniProt P05113); assay: FACS blocking: biotin-IL-5 bound to CHOK1 IL-5Ra/CSF2RB cells, Ab 0.0107 nM
[13] = biological target: recombinant human IL-5 protein (human) (UniProt P05113); assay: FACS blocking: biotin-IL-5 bound to CHOK1 IL-5Ra/CSF2RB cells, Ab 0.0533 nM
[14] = biological target: recombinant human IL-5 protein (human) (UniProt P05113); assay: FACS blocking: biotin-IL-5 bound to CHOK1 IL-5Ra/CSF2RB cells, Ab 0.2667 nM
[15] = biological target: recombinant human IL-5 protein (human) (UniProt P05113); assay: FACS blocking: biotin-IL-5 bound to CHOK1 IL-5Ra/CSF2RB cells, Ab 1.3333 nM
[16] = biological target: recombinant human IL-5 protein (human) (UniProt P05113); assay: FACS blocking: biotin-IL-5 bound to CHOK1 IL-5Ra/CSF2RB cells, Ab 6.6667 nM
[17] = biological target: recombinant human IL-5 protein (human) (UniProt P05113); assay: FACS blocking: biotin-IL-5 bound to CHOK1 IL-5Ra/CSF2RB cells, Ab 33.3333 nM
[18] = biological target: recombinant human IL-5 protein (human) (UniProt P05113); assay: SPR, human IL-5 immobilized on CM5 chip, chimeric antibody as analyte, 1:1 global fit

B1: 154F10G8 mouse-human chimeric antibody (antibody, human IgG4, V domains shown)
VH: QVQLQQPGAELVKPGASVKLSCKASGYTFTSYWITWVKQRPGQGLEWIGDIYPGSGSTFYNEKFKSEATLTVDTSSSTAYMQLSSLTSEDSAVFYCSTETTLGYWGQGTTLTVSS
VL: DVLMTQTPLSLPVSLGDQASISCRSSQSIVHNNGNTYLEWYLQKPGQSPKLLIYKVSNRFSGVPDRFSGSGSGTDFTLKISRVEAEDLGVYYCFQGSHVPFTFGSGTKLEIK
RLU, CTLL-2 proliferation with IL-5, Ab 0.000170667 nM [1]: 59900 RLU and 54900 RLU
RLU, CTLL-2 proliferation with IL-5, Ab 0.000853333 nM [1]: 59800 RLU and 56700 RLU
RLU, CTLL-2 proliferation with IL-5, Ab 0.004266667 nM [1]: 64400 RLU and 61300 RLU
RLU, CTLL-2 proliferation with IL-5, Ab 0.02133333 nM [1]: 62100 RLU and 59300 RLU
RLU, CTLL-2 proliferation with IL-5, Ab 0.1066667 nM [1]: 54800 RLU and 52000 RLU
RLU, CTLL-2 proliferation with IL-5, Ab 0.5333334 nM [1]: 44900 RLU and 38200 RLU
RLU, CTLL-2 proliferation with IL-5, Ab 2.666667 nM [1]: 28000 RLU and 25400 RLU
RLU, CTLL-2 proliferation with IL-5, Ab 13.33333 nM [1]: 16200 RLU and 17000 RLU
RLU, CTLL-2 proliferation with IL-5, Ab 66.66666 nM [1]: 12200 RLU and 12400 RLU
RLU, CTLL-2 proliferation with IL-5, Ab 3.41333E-05 nM [1]: 60700 RLU and 50200 RLU
RLU, TF-1 proliferation with IL-5, Ab 0.00001 nM [1]: 110000 RLU and 113000 RLU
RLU, TF-1 proliferation with IL-5, Ab 0.00003 nM [1]: 111000 RLU and 109000 RLU
RLU, TF-1 proliferation with IL-5, Ab 0.00017 nM [1]: 111000 RLU
RLU, TF-1 proliferation with IL-5, Ab 0.00085 nM [1]: 109000 RLU and 108000 RLU
RLU, TF-1 proliferation with IL-5, Ab 0.00427 nM [1]: 109000 RLU and 114000 RLU
RLU, TF-1 proliferation with IL-5, Ab 0.02133 nM [1]: 99100 RLU and 101000 RLU
RLU, TF-1 proliferation with IL-5, Ab 0.10667 nM [1]: 81400 RLU and 82800 RLU
RLU, TF-1 proliferation with IL-5, Ab 0.53333 nM [1]: 60400 RLU and 56800 RLU
RLU, TF-1 proliferation with IL-5, Ab 2.66667 nM [1]: 45200 RLU and 42600 RLU
RLU, TF-1 proliferation with IL-5, Ab 13.33333 nM [1]: 38500 RLU and 40000 RLU
OD450 nm [2]: 0.083 OD450 nm and 0.098 OD450 nm
OD450 nm [3]: 0.081 OD450 nm and 0.087 OD450 nm
OD450 nm [4]: 0.108 OD450 nm and 0.106 OD450 nm
OD450 nm [5]: 0.224 OD450 nm and 0.221 OD450 nm
OD450 nm [6]: 0.716 OD450 nm and 0.77 OD450 nm
OD450 nm [7]: 1.93 OD450 nm and 2 OD450 nm
OD450 nm [8]: 2.96 OD450 nm and 3.01 OD450 nm
OD450 nm [9]: 3.7 OD450 nm and 3.71 OD450 nm
Fluorescence intensity [10]: 91 MFI
Fluorescence intensity [11]: 88 MFI
Fluorescence intensity [12]: 88 MFI
Fluorescence intensity [13]: 87 MFI
Fluorescence intensity [14]: 67 MFI
Fluorescence intensity [15]: 46 MFI
Fluorescence intensity [16]: 39 MFI
Fluorescence intensity [17]: 35 MFI
Kd [18]: 188 pM
koff [18]: 5.24e-05 s⁻¹
kon [18]: 279000 M⁻¹ s⁻¹
